PMC9496542, “The Ni(II)-Binding Activity of the Intrinsically Disordered Region of Human NDRG1, a Protein Involved in Cancer Development” (Biomolecules, 2022)
Where “and” joins values, the source holds several entries; their conditions need not be identical. Equal values may be shown once.

What was measured:
[1] = target: the molecule itself; assay: SEC-MALS; SEC-MALS-QELS; hNDRG1 300 uL at 140 uM on Superdex 200 10/300 GL; 20 mM HEPES pH 7.5, 150 mM NaCl, 1 mM TCEP; room temperature, 0.5 mL/min; without or with Ni(II); SEC also run with 10 mM DTT; monomer, dimer and tetramer in equilibrium
[2] = target: the molecule itself; assay: SDS-PAGE under nondenaturing conditions with Western blot; HeLa cells untreated or treated with 1 mM NiSO4 for 24 h; lysed under nondenaturing conditions; lysates in native sample buffer; blot with an antibody against the N-terminal region of NDRG1
[3] = target: the molecule itself; assay: SDS-PAGE under nondenaturing conditions with Western blot; A549 cells untreated or treated with 1 mM NiSO4 for two days; total lysates and nuclear extracts; Western blot with anti-NDRG1

B1: full-length human NDRG1 (N-terminal Strep-tagged, recombinant) (natural protein)
chain: not shown
notes: No cleavage of the tag is described for the full-length protein; also called hNDRG1; N-myc downstream-regulated gene 1 protein; source: E. coli BL21-CodonPlus (DE3) RiL, purified (StrepTrap HP, Superdex 200)
[1]
  stoichiometry N: 4 and 2

B2: endogenous hNDRG1 in HeLa cells (natural protein)
chain: not shown
notes: human NDRG1, endogenous protein of HeLa cells, detected with an antibody against the N-terminal region of NDRG1; source: endogenous, HeLa lysate
[2]
  stoichiometry N: 2 and 4

B3: endogenous hNDRG1 in A549 cells (natural protein)
chain: not shown
notes: human NDRG1, endogenous protein of the lung carcinoma-derived A549 cells, detected by Western blot with anti-NDRG1; source: endogenous, A549 lysate
[3]
  stoichiometry N: 4
